Measured values taken from patent US20040038369A1, “Airway-specific trypsin-like enzymes and method of using the same” (priority 2000, published 2004).

Legend:
Type in all cases: cell-based
[1] = target: T1, PAR-1 (Homo sapiens, UniProt P25116); test: Calcium influx in PAR-1-expressing insect cells; conditions: AST 2 units/mL; trypsin, thrombin 0.1 to 10 units/mL; SFLLRNamide 10 to 100 μM
T1 construct: expressed in transfected cells; host or cells: Sf9 insect cells infected with recombinant baculovirus VL-PAR (pVL1393)
T1 sequence (P25116 22-425): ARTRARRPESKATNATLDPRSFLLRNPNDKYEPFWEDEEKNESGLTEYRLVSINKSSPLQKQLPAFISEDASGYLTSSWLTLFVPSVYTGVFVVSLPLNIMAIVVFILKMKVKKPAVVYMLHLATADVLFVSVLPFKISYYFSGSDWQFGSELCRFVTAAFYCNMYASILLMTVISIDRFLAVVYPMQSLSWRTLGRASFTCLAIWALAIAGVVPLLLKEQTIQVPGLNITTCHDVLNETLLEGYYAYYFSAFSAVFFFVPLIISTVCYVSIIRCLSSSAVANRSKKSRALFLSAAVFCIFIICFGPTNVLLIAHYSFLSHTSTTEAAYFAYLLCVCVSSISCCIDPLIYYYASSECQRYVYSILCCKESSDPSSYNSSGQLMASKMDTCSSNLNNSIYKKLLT
Procedure: The recovered infected cells (about 5×10^6 cells) were once washed with HEPES-Tyrode buffer solution-Ca^2+ (−) pH 7.4, and then suspended in 5 mL of HEPES-Tyrode buffer solution (containing Fura2-AM, 1 μg/mL) to load the Fura2-AM on the cells at 27° C. for 30 minutes. The suspension was centrifuged at 800 rpm at room temperature for 5 minutes to recover the cells. The cells were twice washed with HEPES-Tyrode buffer solution-Ca^2+ (−) pH 7.4 and then resuspended in 5 mL of HEPES-Tyrode buffer solution-Ca^2+ (−) pH 7.4. The cell suspension was mixed with 5 μL of 1M CaCl2 to give a final concentration of 1 mM CaCl2, and then incubated in a shaded state at room temperature for 5 minutes. The prepared Fura2-AM-loaded infected cells were dispensed into a 96 well plate in a volume of 100 μL/well, further subjected to the dispensation of HEPES-Tyrode buffer solution-C^2+ (+) pH 7.4 in a volume of 80 μL/well, and then assayed with a Fluorescence Drug Screening System (made by Hamamatsu Photonics Co.). Namely, [intensity of 500 nm fluorescent light due to 340 nm exciting light]/[intensity of 500 nm fluorescent light due to 380 nm exciting light] (reflecting the concentration of calcium in the cells) was assayed.

[2] = target: T2, PAR-2 (Homo sapiens, UniProt P55085); test: Calcium influx in PAR-2-expressing insect cells; conditions: AST 2 units/mL; trypsin, thrombin 0.1 to 10 units/mL; SFLLRNamide, SLIGRL 10 to 100 μM
T2 construct: expressed in transfected cells; host or cells: Sf9 insect cells infected with recombinant baculovirus VL-PAR (pVL1393)
T2 sequence (P55085 26-397): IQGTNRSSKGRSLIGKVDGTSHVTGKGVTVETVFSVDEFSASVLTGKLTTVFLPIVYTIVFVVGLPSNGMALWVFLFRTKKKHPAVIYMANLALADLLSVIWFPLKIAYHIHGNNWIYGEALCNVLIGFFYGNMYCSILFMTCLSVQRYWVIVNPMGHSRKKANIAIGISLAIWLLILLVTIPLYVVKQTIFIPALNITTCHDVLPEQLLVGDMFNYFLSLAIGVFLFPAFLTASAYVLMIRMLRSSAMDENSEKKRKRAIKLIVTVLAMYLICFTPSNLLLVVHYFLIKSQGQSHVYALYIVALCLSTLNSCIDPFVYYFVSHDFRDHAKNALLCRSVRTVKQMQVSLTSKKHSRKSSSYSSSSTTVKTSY
Procedure: (§1) The above-obtained recombinant baculovirus VL-PAR for expressing the PAR was used to infect 1.0×10^7 Sf9 cells sowed on a 75 cm^2 flask at an MOI=2, and was then left and stationally cultured at 27° C. for 40 hours. After the culture, the infected cells were recovered and then subjected to a calcium influx experiment to-confirm the function of the PAR.
(§2) The recovered infected cells (about 5×10^6 cells) were once washed with HEPES-Tyrode buffer solution-Ca^2+ (−) pH 7.4, and then suspended in 5 mL of HEPES-Tyrode buffer solution (containing Fura2-AM, 1 μg/mL) to load the Fura2-AM on the cells at 27° C. for 30 minutes. The suspension was centrifuged at 800 rpm at room temperature for 5 minutes to recover the cells. The cells were twice washed with HEPES-Tyrode buffer solution-Ca^2+ (−) pH 7.4 and then resuspended in 5 mL of HEPES-Tyrode buffer solution-Ca^2+ (−) pH 7.4. The cell suspension was mixed with 5 μL of 1M CaCl2 to give a final concentration of 1 mM CaCl2, and then incubated in a shaded state at room temperature for 5 minutes. The prepared Fura2-AM-loaded infected cells were dispensed into a 96 well plate in a volume of 100 μL/well, further subjected to the dispensation of HEPES-Tyrode buffer solution-C^2+ (+) pH 7.4 in a volume of 80 μL/well, and then assayed with a Fluorescence Drug Screening System (made by Hamamatsu Photonics Co.). […]

[3] = target: T3, PAR-4 (Homo sapiens, UniProt Q96RI0); test: Calcium influx in PAR-4-expressing insect cells; conditions: AST 2 units/ml; trypsin, thrombin 0.1 to 10 units/mL
T3 construct: expressed in transfected cells; host or cells: Sf9 insect cells infected with recombinant baculovirus VL-PAR (pVL1393)
T3 sequence (Q96RI0 18-385): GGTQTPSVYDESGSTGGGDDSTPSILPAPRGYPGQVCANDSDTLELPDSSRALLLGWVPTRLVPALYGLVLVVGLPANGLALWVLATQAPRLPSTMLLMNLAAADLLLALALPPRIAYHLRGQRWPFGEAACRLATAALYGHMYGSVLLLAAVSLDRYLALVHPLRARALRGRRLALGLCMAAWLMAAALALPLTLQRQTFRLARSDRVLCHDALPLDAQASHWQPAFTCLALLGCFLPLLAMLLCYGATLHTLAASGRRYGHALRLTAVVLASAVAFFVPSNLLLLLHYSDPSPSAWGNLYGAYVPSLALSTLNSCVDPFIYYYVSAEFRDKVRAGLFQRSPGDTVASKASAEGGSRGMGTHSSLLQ
Procedure: as §1, §2

[4] = test system: normal human airway epithelial cells; test: Calcium influx in normal human airway epithelial cells; conditions: AST 2 units/mL; trypsin 10 to 100 units/mL; SFLLRNamide 100 μM
Procedure: The Ca^2+ influx due to the AST was examined with confluent normal epithelial cells adhered to three 10 cm dishes (purchased from BioWhittaker Corp.). The cells were peeled with a 10 mM EDTA/HEPES-Tyrode buffer solution for 10 minutes, recovered by a centrifugal treatment at 800 rpm at room temperature for 5 minutes, and then resuspended in 5 mL of HEPES-Tyrode buffer solution-Ca^2+ (−) pH 7.4. The recovered cells (about 1.2×10^6 cells) were suspended in 5 mL of HEPES-Tyrode buffer solution (1 μg/mL, containing Fura2-AM) to load the Fura2-AM to the cells at 37° C. for one hour. The cells were recovered by a centrifugal treatment at 800 rpm at room temperature for 5 minutes, twice washed with HEPES-Tyrode buffer solution-Ca^2+ (−) pH 7.4, and then resuspended in […] of HEPES-Tyrode buffer solution-Ca^2+ (−) pH 7.4. The cell suspension was mixed with 5 μL of 1M CaCl2 to give a final concentration of 1 mM CaCl2, and then incubated in a shaded state at room temperature for 5 minutes. The prepared Fura2-AM-loaded infected cells were dispensed into a 96 well plate in a volume of 100 μL/well, further subjected to the dispensation of HEPES-Tyrode buffer solution-Ca^2+ (+) pH 7.4 in a volume of 80 μL/well, and then assayed with Fluorescence Drug Screening System (Hamamatsu Photonics Co.). […]

[5] = test system: BEAS-2B; test: Calcium influx in airway epithelial cell strain BEAS-2B; conditions: AST 2 units/mL; trypsin 10 to 100 units/mL; SFLLRNamide 100 μM
Procedure: The Ca^2+ influx due to the AST was examined with respect to an airway epithelial cell strain BEAS-2B. The confluent cells adhered to six 10 cm dishes were used. The cells were peeled with a 10 mM EDTA/HEPES-Tyrode buffer solution for 10 minutes, recovered by a centrifugal treatment at 1,500 rpm at room temperature for 5 minutes, and then resuspended in 10 mL of HEPES-Tyrode buffer solution-Ca^2+ (−) pH 7.4. The recovered cells (about 1.1×10^7 cells) were suspended in 11 mL of HEPES-Tyrode buffer solution (1 μg/mL, containing Fura2-AM) to load the Fura2-AM at 37° C. for 30 minutes. The cells were recovered by a centrifugal treatment at 1,500 rpm at room temperature for 5 minutes, twice washed with HEPES-Tyrode buffer solution-Ca^2+ (−) pH 7.4, and then resuspended in 11 mL of HEPES-Tyrode buffer solution-Ca^2+ (−) pH 7.4. The cell suspension was mixed with […] of 1M CaCl2 to give a final concentration of 1 mM CaCl2, and then incubated in a shaded state at room temperature for 5 minutes. The prepared Fura2-AM-loaded infected cells were dispensed into a 96 well plate in a volume of 100 μL/well, further subjected to the dispensation of HEPES-Tyrode buffer solution-Ca^2+ (+) pH 7.4 in a volume of 80 μL/well, and then assayed with Fluorescence Drug Screening System (Hamamatsu Photonics Co.). […]

Measured: Ca2+ influx

B1: trypsin: trypsin originated from bovine pancreas (protein)
chain: IVGGYTCGANTVPYQVSLNSGYHFCGGSLINSQWVVSAAHCYKSGIQVRLGEDNINVVEGNEQFISASKSIVHPSYNSNTLNNDIMLIKLKSAASLNSRVASISLPTSCASAGTQCLISGWGNTKSSGTSYPDVLKCLKAPILSDSSCKSAYPGQITSNMFCAGYLEGGKDSCQGDSGGPVVCSGKLQGIVSWGSGCAQKNKPGVYTKVCNYVSWIKQTIASN
observed: all assays above
